Measurements published in patent publication US20240102992A1.

Molecular target: canine CD20 with C-terminal FLAG tag, expressed on A20/cCD20/luc or EL-4/cCD20/luc cells (dog) (UniProt Q3C2E2)
Test: cell-based or functional assay

UniProt Q3C2E2, sequence (Q3C2E2 other isoform, or with tags, fused parts or gaps): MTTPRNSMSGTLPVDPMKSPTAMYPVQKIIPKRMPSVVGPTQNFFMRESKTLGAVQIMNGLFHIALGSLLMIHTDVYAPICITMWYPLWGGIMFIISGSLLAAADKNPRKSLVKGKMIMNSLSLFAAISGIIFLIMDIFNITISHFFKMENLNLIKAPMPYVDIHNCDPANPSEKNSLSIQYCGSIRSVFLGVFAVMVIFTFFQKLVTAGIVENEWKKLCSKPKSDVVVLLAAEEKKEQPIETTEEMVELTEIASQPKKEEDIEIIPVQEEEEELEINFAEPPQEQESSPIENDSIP

Substance “Dog IgG antibody (Jackson ImmunoResearch Laboratories, Inc.)” has a cell-mediated cytotoxicity activity (lysis rate); targets A20/cCD20/luc and EL-4/cCD20/luc, effectors NK-92/cCD16γ, E/T 10:1 of less than 25%.
